From patent publication US20220380463A1 (Adimab, published 2022)

Assays:
[1] = molecular target: T1, human CD3 on CD3+ Jurkat cells (human, UniProt P07766 23-207); assay: flow cytometry on CD3+ Jurkat cells, ratio of MFI at pH 6.0 to pH 7.4
T1 construct: whole, on cells; Native CD3 complex on cells; the other CD3 chains are not specified for this assay; also called Human CD3+ Jurkat
Description: (§1) Specificity of the anti-CD3 antibodies for human CD3+ Jurkat cells compared to CHO-S cells at pH 6.0 and 7.4 was determined using a FACS cell binding assay. Briefly, CD3+ human Jurkat cells and CHO-S cells were thawed and washed with cold PBSF buffer, pH 7.4 (PBS+0.1% BSA, pH 7.4). About 200,000 cells were aliquoted per well of a 96-well plate and pelleted by centrifugation (5 minutes at 500×g). The cells were washed with either PBSF pH 7.4 or PBSF pH 6.0 (PBS+0.1% BSA, pH 6.0), and then resuspended in 100 ul in either PBSF pH 7.4 or PBSF pH 6.0 with IgG antibody produced in yeast (100 nM). The mixture (cells+antibody) was incubated for 20 minutes on ice, then washed twice with either PBSF pH 7.4 or PBSF pH 6.0. Cells were resuspended in 50 ul of propidium iodide (1:500 dilution) and anti-human IgG-RPE (1:100 dilution) prepared in either PBSF pH 7.4 or PBSF pH 6.0, then incubated for 20 minutes on ice in the dark before cells were washed twice with either PBSF pH 7.4 or PBSF pH 6.0. Binding was analyzed on FACS Canto II.
(§2) Cell binding assays. CD3+ human Jurkat cells (ATCC) and CHO-S cells (Invitrogen/ThermoFisher) were thawed and washed with cold PBSF buffer, pH 7.4 (PBS+0.1% BSA, pH 7.4). About 200,000 cells were aliquoted per well of a 96-well plate (FACS Assay Plate VWR BD 353263) and pelleted by centrifugation (5 minutes at 500×g). The cells were washed with either PBSF pH 7.4 or PBSF pH 6.0 (PBS+0.1% BSA, pH 6.0), and then resuspended in 100 ul in either PBSF pH 7.4 or PBSF pH 6.0 with IgG antibody (100 nM) produced in yeast as described above. The mixture (cells+antibody) was incubated for 20 minutes on ice, then washed twice with either PBSF pH 7.4 or PBSF pH 6.0. Cells were resuspended in 50 ul of propidium iodide (Roche; 1:500 dilution) and anti-human IgG-RPE (Southern Biotech; 1:100 dilution) prepared in either PBSF pH 7.4 or PBSF pH 6.0, then incubated for 20 minutes on ice in the dark before cells were washed twice with either PBSF pH 7.4 or PBSF pH 6.0. Binding was analyzed on FACS Canto II.

[2] = molecular target: T1, human CD3 on CD3+ Jurkat cells; assay: flow cytometry, 100 nM IgG on CD3+ Jurkat cells, pH 7.4
Description: as §1, §2

[3] = molecular target: T1, human CD3 on CD3+ Jurkat cells; assay: flow cytometry, 100 nM IgG on CD3+ Jurkat cells, pH 6.0
Description: as §1, §2

T1 sequence (P07766 23-207): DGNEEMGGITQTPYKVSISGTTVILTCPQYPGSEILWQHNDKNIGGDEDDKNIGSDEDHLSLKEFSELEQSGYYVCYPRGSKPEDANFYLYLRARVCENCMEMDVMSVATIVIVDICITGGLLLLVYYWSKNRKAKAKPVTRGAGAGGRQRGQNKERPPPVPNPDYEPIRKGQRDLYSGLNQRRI

Binder | MFI pH 6.0/MFI pH 7.4 [1] | MFI pH 7.4 [2] [MFI] | MFI pH 6.0 [3] [MFI]
SAD10318_P02_A05 (ADI-48595) (antibody, V domains shown, IgG; also called Ab178) VH: QVQLVQSGTEVKKPGASVKVSCKASGFNIKDYYMHWVRQAPGQRLEWMGWIDLENANTIYDAKFQGRVTITRDTSASTAYMELSSLRSEDTAVYYCARDAYHRYFYDHWGQGTLVTVSS VL: DIVMTQSPDSLAVSLGERATINCKSSQSLLNSHTGKNYLAWYQQKPGQPPKLLIYWASTRESGVPDRFSGSGSGTDFTLTISSLQAEDVAVYYCKQSYSRRTFGGGTKVEIK | 1.2 | 4960 | 5980
SAD10318_P03_C09 (ADI-48609) (antibody, V domains shown, IgG; also called Ab205) VH: QVQLVQSGAEVKKPGASVKVSCKASGFNIKDYYMHWVRQAPGQRLEWMGWIDLENANTIYDAKFQGRVTITRDTSASTAYMELSSLRSEDTAVYYCARDAYHRYFYDHWGQGTLVTVSS VL: DIVMTQSPDSLAVSLGERATINCKSSQSLLNAHTGKNHLAWYQQKPGQPPKLLIYWASTRESGVPDRFSGSGSGTDFTLTISSLQAEDVAVYYCKQSYHHRTFGGGTKVEIK | 9.3 | 37 | 346
SAD10318_P03_C08 (ADI-48603) (antibody, V domains shown, IgG; also called Ab197) VH: QVQLVQSGAEVKKPGASVKVSCKASGFNIKDYYMHWVRQAPGQRLEWMGWIDLENANTIYDAKFQGRVTITRDTSASTAYMELSSLRSEDTAVYYCARDHYGHYFYDVWGQGTLVTVSS VL: DIVMTQSPDSLAVSLGERATINCKSSQSLLHARTGKNHLAWYQQKPGQPPKLLIYWASTRESGVPDRFSGSGSGTDFTLTISSLQAEDVAVYYCKQSHSHRTFGGGTKVEIK | 3.5 | 51 | 177
SAD10318_P03_A09 (ADI-48608) (antibody, V domains shown, IgG; also called Ab203) VH: QVQLVQSGAEVKKPGASVKVSCKASGFNIKDYYMHWVRQAPGQRLEWMGWIDLENANTIYDAKFQGRVTITRDTSASTAYMELSSLRSEDTAVYYCARDHYGRYFYDHWGQGTLVTVSS VL: DIVMTQSPDSLAVSLGERATINCKSSQSLLNARTGHNHLAWYQQKPGQPPKLLIYWASTRESGVPDRFSGSGSGTDFTLTISSLQAEDVAVYYCKQSYHHRTFGGGTKVEIK | 4.5 | 45 | 203
SAD10318_P02_D05 (ADI-48598) (antibody, V domains shown, IgG; also called Ab181) VH: QVQLVQSGAEVKKPGASVKVSCKASGFNIKDYYMHWVRQAPGQRLEWMGWIDLENANTIYDAKFQGRVTITRDTSASTAYMELSSLRSEDTAVYYCARDHYGHYFYDVWGQGTLVTVSS VL: DIVMTQSPDSLAVSLGERATINCKSSQSLLNARTGKNHLAWYQQKPGQPPKLLIYWASTRESGVPDRFSGSGSGTDFTLTISSLQAEDVAVYYCKQSYHHRTFGGGTKVEIK | 8.6 | 33 | 279
SAD10318_P02_H04 (ADI-48594) (antibody, V domains shown, IgG; also called Ab169) VH: QVQLVQSGAEVKKPGASVKVSCKASGFNIKDYYMHWVRQAPGQRLEWMGWIDLENANTIYDAKFQGRVTITRDTSASTAYMELSSLRSEDTAVYYCARDAYHRYFYDHWGQGTLVTVSS VL: DIVMTQSPDSLAVSLGERATINCKSSQSLLHARTGHNYLAWYQQKPGQPPKLLIYWASTRESGVPDRFSGSGSGTDFTLTISSLQAEDVAVYYCKQSYSRRTFGGGTKVEIK | 3.2 | 1320 | 4260
SAD10318_P02_G04 (ADI-48593) (antibody, V domains shown, IgG; also called Ab158) VH: QVQLVQSGAEVKKPGASVKVSCKASGFNIKDYYMHWVRQAPGQRLEWMGWIDLENANTIYDAKFQGRVTITRDTSASTAYMELSSLRSEDTAVYYCARDAYGHYHYDVWGQGTLVTVSS VL: DIVMTQSPDSLAVSLGERATINCKSSQSLLHARTGKNYLAWYQQKPGQPPKLLIYWASTRESGVPDRFSGSGSGTDFTLTISSLQAEDVAVYYCKQSYHHRTFGGGTKVEIK | 39.4 | 96 | 3780
SAD10318_P02_G06 (ADI-48600) (antibody, V domains shown, IgG; also called Ab189) VH: QVQLVQSGAEVKKPGASVKVSCKASGFNIKDYYMHWVRQAPGQRLEWMGWIDLENANTIYDAKFQGRVTITRDTSASTAYMELSSLRSEDTAVYYCAHDAYGHYFYDVWGQGTLVTVSS VL: DIVMTQSPDSLAVSLGERATINCKSSQSLLHTRTGKNYLAWYQQKPGQPPKLLIYWASTRESGVPDRFSGSGSGTDFTLTISSLQAEDVAVYYCKQSYSRRTFGGGTKVEIK | 2.2 | 1340 | 2900
SAD10318_P02_B05 (ADI-48596) (antibody, V domains shown, IgG; also called Ab179) VH: QVQLVQSGAEVKKPGASVKVSCKASGFNIKDYYMHWVRQAPGQRLEWMGWIDLENANTIYDAKFQGRVTITRDTSASTAYMELSSLRSEDTAVYYCARDAYGRHFYDHWGQGTLVTVSS VL: DIVMTQSPDSLAVSLGERATINCKSSQSLLNAHTGKNYLAWYQQKPGQPPKLLIYWASTRESGVPDRFSGSGSGTDFTLTISSLQAEDVAVYYCKQSYSRRTFGGGTKVEIK | 0.6 | 828 | 500
SAD10318_P03_D08 (ADI-48604) (antibody, V domains shown, IgG; also called Ab198) VH: QVQLVQSGAEVKKPGASVKVSCKASGFNIKDYYMHWVRQAPGQRLEWMGWIDLENANTIYDAKFQGRVTITRDTAASTAYMELSSLRSEDTAVYYCARDHYHRYFYDHWGQGTLVTVSS VL: DIVMTQSPDSLAVSLGERATINCKSSQSLLNAHTGKNHLAWYQQKPGQPPKLLIYWASTRESGVPDRFSGSGSGTDFTLTISSLQAEDVAVYYCKQSYSRRTFGGGTKVEIK | 4.7 | 43 | 199
SAD10318_P03_E07 (ADI-48601) (antibody, V domains shown, IgG; also called Ab191) VH: QVQLVQSGAEVKKPGASVKVSCKASGFNIKDYYMHWVRQAPGQRLEWMGWIDLENANTIYDAKFQGRVTITRDTSASTAYMELSSLRSEDTAVYYCARDHYHRYFYDVWGQGTLVTVSS VL: DIVMTQSPDSLAVSLGERATINCKSSQSLLNAHTGKNYLAWYQQKPGQPPKLLIYWASTRESGVPDRFSGSGSGTDFTLTISSLQAEDVAVYYCHQSHSRRTFGGGTKVEIK | 20.7 | 52 | 1080
SAD10318_P02_C04 (ADI-48592) (antibody, V domains shown, IgG; also called Ab125) VH: QVQLVQSGAEVKEPGASVKVSCKASGFNIKDYYMHWVRQAPGQRLEWMGWIDLENANTIYDAKFQGRVTITRDTSASTAYMELSSLRSEDTAVYYCARDAHHRYFYDVWGQGTLVTVSS VL: DIVMTQSPDSLAVSLGERATINCKSSQSLLNAHTGHNYLAWYQQKPGQPPKLLIYWASTRESGVPDRFSGSGSGTDFTLTISSLQAEDVAVYYCKQSYSRRTFGGGTKVEIK | 1.9 | 2990 | 5810
SAD10318_P03_D09 (ADI-48610) (antibody, V domains shown, IgG; also called Ab206) VH: QVQLVQSGAEVKKPGASVKVSCKASGFNIKDYHMHWVRQAPGQRLEWMGWIDLENANTIYDAKFQGRVTITRDTSASTAYMELSSLRSEDTAVYYCARDAHHRYFYDVWGQGTLVTVSS VL: DIVMTQSPDSLAVSLGERATINCKSSQSLLNAHTGKNHLAWYQQKPGQPPKLLIYWASTRESGVPDRFSGSGSGTDFTLTISSLQAEDVAVYYCKQSHSHRTFGGGTKVEIK | 5 | 72 | 361
SAD10318_P02_H05 (ADI-48599) (antibody, V domains shown, IgG; also called Ab185) VH: QVQLVQSGAEVKKPGASVKVSCKASGFNIKDYYMHWVRQAPGQRLEWMGWIDLENANTIYDAKFQGRVTITRDTSASTAYMELSSLRSEDTAVYYCARDAYGHHFYDVWGQGTLVTVSS VL: not shown | 2.3 | 583 | 1320
